Measurements: the DeepSol protein solubility set

assay: soluble on expression in E. coli; label from the status in PepcDB or PDB records

Sequence | soluble on expression in E. coli
MSLPHVILTVLSTRDATGYDITKEFSASIGYFWKASHQQVYRELNKMGEQGLVTCVLEPQEGKPDRKVYSITQAGRSALGEWFDQPTAHPTVRDEFSAKLMACSVQSAEPYRLQLAELVEESRKLVAHYQEIEAAYYANPAVLDKQQRLERLTLRRNLLVRQAWIQWADEVLAELNAMA | soluble
MFFNKSLQQENQRLKQELYSLQQIQQSLDEEMLRLTLDAKGNVTSANQKFLQQLSLSDKDILAKHISDLVPSNVRNTDHFYRMKQSVQAKAFWNGAFQITKGDGEEAWLRVVIQPVRNASDQVESFFVFASELTRTITTSREYEDMLNALSRSMAVIEFTLDGTVLKANDNFLSTMGYKHEQIVGKHHRIFCLPEEANSSAYHDFWKRLASGQFVTDRFKRVDQHGSVVWLEASYNPIHNDRGELYKVVKFATNITQQVLQ | not soluble
MSRFTDKVAIITGSSNGIGQATARLLASEGAKVTVTGRNAERLEETKNILLGAGVPEGNVLVVVGDITQESVQENLIKSTLDKFGKIDILVNNAGAGIPDAQGKSGVNQSIDTYHKTFELNVQSVIEMTQKARPHLAKTQGEIVNISSIGAGPAAQVASPYYSIAKAALDQYTRTAAIDLVPEGIRVNSVSPGAVSTGFSAVSRGLTEEKSKAFYDYLGAQRECIPRGFCAVPEDIAKVIAFLADRNASNYIIGQTIVADGGTSLILGAHAHGAKMMQAVFKEL | not soluble
GIPRNSSTGAKTAKSDKLKVVATNSIIADMTKAIAGDKIDLHSIVPIGQDPHEYEPLPEDAEKTSNADVIFYNGINLEDGGQAWFTKLVKNAQKTKNKDYFAVSDGIDVIYLEGASEKGKEDPHAWLNLENGIIYSKNIAKQLIAKDPKNKETYEKNLKAYVAKLEKLDKEAKSKFDAIAENKKLIVTSEGCFKYFSKAYGVPSAYIWEINTEEEGTPDQISSLIEKLKVIKPSALFVESSVDRRPMETVSKDSGIPIYSEIFTDSIAKKGKPGDSYYAMMKWNLDKISEGLAK | soluble
MRYLLSLSVFLIVSLNPAFAEWTGDNVEGMHSGMIINKFHSGQVDGKPYFCIEAFKPSTTITACSVKDTSIWGASYNTLYDQAMYYYTTGKRIRVYYAPDVWTNNSFVRALTANALVGFSTCISESSCFGPDRKKHKFTVH | not soluble
MNRIAKLLKTKYPIVQGPMAGITLGEFASTVSEAGGLGVIASAGLSPEKLKEEIEKVKNRTDKPFAVNIPIYQPGSEKNLETALKADVGIIYTSAGSPEKYTERVKESGAKVIHKVSRLKEGLKAEKAGVDAVVAMGFEAGGIIGRSGVTSFCLIPELADNLSIPVVAAGGIADERGFAAALILGAEGVEIGTRLLATKECPVPESIKQAILKATCDSTMVIESPVVMRALKPELSGDSENPALGGQVSGLIKEILTVEEVIRKIAEGLNKAKF | not soluble
MGSDKIHHHHHHMRQESLFNPDKSSSSPLAYRVRPVTLADFKGQEHLLGPGKLLRQLIAEDQLPSLIFWGPPGVGKTTLAEIIAQQTQSHFITFSAVTSGIKEIRQIMDEAEANRDFGEKTIVFIDEIHRFNKAQQDAFLPYVERGSITLIGATTENPSFEINAALLSRCKVLVLKALTPDALEAVLQGALQNPKGFPDLEITMQPDTLRLIAEFANGDARMALNTLEMAVLNGDRDGKHVTITTAGLSQLINTKSLRYDKHGEEHYNIISALHKSMRNSDVDAAIYWLMRMLAGGEDPLYIARRLIRFASEDIGLADRQALPLTVAVFQACQLIGMPECDVNLTEAVTYLALAPKSNALYAAKSAAQADIKATGNLPVPLQIRNAPTKLMKDLGYGSDYQYAHDTAAKLTTMTTMPPELKQHRYYEPTSQGQEKAWQQRLAAIRSGTSNIRKPNRQMMRHKDCNLMRIH | not soluble
MAHHHHHHMDLVQLQRILSTHDERVVKVFVNHIPEVGLRKIDDCVLEYMLKMLEGQTSSESYLPEEIIEETMKLYFREFDVFSDSEEKLNKSTAAICQQMLKEGITKKPSEESSRLASAVNIGRQYEESLKRATMIKSVGKVTTANTNEDWTWETKRSAAKDMRKKRREDEKKAILAEEYEAFLRKRGISNTTAVTKIHHKGEGTNYSTDIRCEAIHIQLGKQVLLDDTDLVLLTGHKYGLIGRNGAGKTTLLRALAERELEGVSPFMQILHVEQEIVAGAETPLEVLLATDVERAQLLHEEQELLKQNDTEANTRLNEVYARLDAIDAHSAEARAATILHGLSFTQDMMTSPTKQLSGGWRMRVALARALFVEPDVLLLDEPTNHLDLFAVLWLEQFLRDWQKTLIVVSHSRTFLNNVCSEIIHLIGHHLHYYNGNYDQFEITRVEQERQQKKQHAAQEKQRAHIQAFIDKFRYNANRAKMAQSRIKALERMEMVADVVTDPQFAFTFPDAEPVSGSFIEMVDCEFGYKPGVSLFKDVNMGIDESSRIVLVGANGVGKSTFMNVCTGALEPRSGTVVRNKKIRVAHFAQHNMESLTPQLSSLEFLRSKFPHMEDQQLRAHLGSMGLSGERALQPIYTLSGGQKSRLVLAWITFQKPHLLLLDEPTNHLDIDTVNALIEALLAYNGGLLVISHDEYFITSLCDDIFVCEDNTVKKFDGDFAEYRKHVVKMMK | soluble
MGHHHHHHSHELEALSQDPRRYEEWKWFRCPTLLEVLEQFPSVALPAPLLLTQLPLLQPRYYSVSSAPSTHPGEIHLTVAVLAYRTQDGLGPLHYGVCSTWLSQLKPGDPVPCFIRGAPSFRLPPDPSLPCILVGPGTGIAPFRGFWQERLHDIESKGLQPTPMTLVFGCRCSQLDHLYRDEVQNAQQRGVFGRVLTAFSREPDNPKTYVQDILRTELAAEVHRVLCLERGHMFVCGDVTMATNVLQTVQRILATEGDMELDEAGDVIGVLRDQQRYHEDIFGLTLRTQEVTSRI | not soluble
MSLVSGFSVTLGEATSSNPSYKSAVMDYFKAKTDKDLQSADIKIVTASEVNEVSRGVTGRVYSPSQILSCAMVDLSYSDGIKVSVDTSKIRVVTPEMYASALRSSGIDRGYVVVTSPVPASGEAALAGVLKSYEIAVGEQIPEEAKRVSVEEIYLQSRLVNETNATGDRVAELFDEVKNRTQSQNLQDPADIQRVVVDVSQQMNINLTETQVQQVADSVAASQRVQGSLTEFKQRLEGVSQQVGGSGILDQIYAFLQSIYNYIMGIASPEGHHHHHH | soluble
MAIELHGAISPQDDGSFDSKTLGTICWGDHNNVYMVIGNQTLEGKISKIDRPLLVIQKSDKNHQENGEKNATVNAVIRKKLVFKTRPRPLVLSTVV | soluble
MADKSAEKERLFNEWFTASYDRLRGTLRRYGMLDEDNFHDTYLFVRRQVLVPGKDITDYDAYFIGCYKKAALVKIKRENRYAHPEDDFFLRCGEEAKFLSEDDLNGCERLVRDILRFVRQKFSYEEYRMFMLRFYEAQFSFKALAECMGISASAISQKVCRIVDAVRTHSGFAWRSQMLAVESFMY | not soluble
VKVQPNDYVFRDLANHNQIFVKDKDPKVYNNPYYIDQVQLKDAQQTDLTSIQASFTTLDGVDKTEILKELKVTDKNQNAIQISDITLDTSKSLLIIKGDFNPKQGHFNISYNGNNVTTRQSWEFKDQLYAYSGNLGAVLNQDGSKVEASLWSPSADSVTMIIYDKDNQNRVVATTPLVKNNKGVWQTILDTKLGIKNYTGYYYLYEIKRGKDKVKILDPYAKSLAEWDSNTVNDDIKTAKAAFVNPSQLGPQNLSFAKIANFKGRQDAVIYEAHVRDFTSDQSLDGKLKNQLGTFAAFSEKLDYLQKLGVTHIQLLPVLSYFYVNEMDKSRSTAYTSSDNNYNWGYDPQSYFALSGMYSEKPKDPSARIAELKQLIHDIHKRGMGVILDVVYNHTAKTYLFEDIEPNYYHFMNEDGSPRESFGGGRLGTTHAMSRRVLVDSIKYLTSEFKVDGFRFDMMGDHDAAAIELAYKEAKAINPNMIMIGEGWRTFQGDQGKPVKPADQDWMKSTDTVGVFSDDIRNSLKSGFPNEGTPAFITGGPQSLQGIFKNIKAQPGNFEADSPGDVVQYIAAHDNLTLHDVIAKSINKDPKVAEEDIHRRLRLGNVMILTSQGTAFIHSGQEYGRTKRLLNPDYMTKVSDDKLPNKATLIEAVKEYPYFIHDSYDSSDAINHFDWAAATDNNKHPISTKTQAYTAGLITLRRSTDAFRKLSKAEIDREVSLITEVGQGDIKEKDLVIAYQTIDSKGDIYAVFVNADSKARNVLLGEKYKHLLKGQVIVDADQAGIKPISTPRGVHFEKDSLLIDPLTAIVIKVGKVAPSPKEELQADYPKTQSFKGSKTVEKVNRIANKTSITPVVSNKTDSYLTNEANLEHHHHHH | soluble
MYVCHFENCGKAFKKHNQLKVHQFSHTQQLPYECPHEGCDKRFSLPSRLKRHEKVHAGYPCKKDDSCSFVGKTWTLYLKHVAECHQD | soluble
MKIALSFLFLTSTFSNAGKIGRLQSVAVSGQLNCLGKPAVGVRIDLMESDNNGEETGIIDDNDFMGYTYTDSAGFFNMSGSEVEISGIEPYVNIFHKCNDGLSPCQRQLRVDIPKSATASGPAPNETFSIGTLELSSRKVIGERRSCAYRNLTQTS | not soluble
MGSDKIHHHHHHMNEKTSVSSDRRDFWDGRAREFSEHAASTGYPRAFLRILKPRKSWTVLDMACGGGTIAIPLANRVKFITAVDFSMRMLEIVEQRCLAGKITNVKTLQGRWEDDWDDLGIGVHDVAIASRSLLSETAMDSIAKLNRAATKAVYISVAVGSGPFDWRLLEAADRERNTRPDYIFYYNLLYEMGIPANVSFIPESYRNSWESHEEAFEDQLWMFQGMTGEEEEKVRAYLREHLVWVKGHWQLPYSRNYYWAVLYWTKDREIGS | not soluble
MNKEKEQQLNEALVLFSFAYKTFTEEPDLIIKKYGIQRIHHRILFFVARFPGLSVNELLKLLEISKQALHKPMHILINKGLIFSKESDYDRRIKEIFLTNEGERLEKEISNIQREHLLSIFSQFHNGDEKSWLEIMRQLSLKRLGYAAWNKKK | not soluble
MGSDKIHHHHHHMPTRVIEDKGDMTPSFGIDDRIFLGEGLFETIRVNSSKPSFAYMHWERLGNSARQLGIPFEISFDDWFEHLIQKIQKDNLYHGGIKAILSGGPASRGLAERGQVSQLIFQTFNYSIQKHPVRLISINWLRDKANPLYQLKSVNYLEAIIAQRQAIAVGADDALFFNTENHVTETTCANLFLIENNILYTPRVEDGILPGITRARLISHCQQHKMSVQEISLTKKRIEDADAVFLTNSLQGIRRVLSLDNIIFEVNHPIIDKLIFLLNQDES | not soluble
MGHHHHHHSHMDQEMRVKRLESEKQELQEQLDLQHKKCQEANQKIQELQASQEARADHEQQIKDLEQKLSLQEQDAAIVKNMKSELVRLPRLERELKQLREESAHLREMRETNGLLQEELEGLQRKLGRQEKMQETLVGLELENERLLAKLQSWERLDQTMGLSIRTPEDLSRFVVELQQRELALKDKNSAVTSSARGLEKARQQLQEELRQVSGQLLEERKKRETHEALARRLQKRVLLLTKERDGMRAILGSYDSELTPAEYSPQLTRRMREAEDMVQKVHSHSAEMEAQLSQALEELGGQKQRADMLEMELKMLKSQS | soluble
MGSDKIHHHHHHMEVERISGLKFHKKQDVAIVGAGMTTFKRRLNETGRELSYLAVKQALEEAGLTIDDIEMVVMGSAPDAFDGFHMKGEYLLDGSGGSNRPYMRVFVGGGTGVFAPIAGYWHVASGLADVCLVVCEEKMSSVHPHPQSAFKYIWDPILDRPLNPNLIWIFALEMRRYMHVHNIKHEDIALVSVKNKANALDHPCAQVAEKITVEDVLNSEPMALPVRRLDVSPPSDGAAALIMVAPHIARQLTDNPVWVTGVGWALDTTWWTNRDLYFPRYVAEAAKMAYRMAHITDPRKEIDVAEPYDPFDYKELHHMEGLGLAKKGEAPILTREGVTQRDGDLPTCPSGGLLGVGNPIAATMGVKACEIYWQLAYRAGKRQVAKEVTTGVCQAWGDLMQVGTVMVMSNKR | not soluble
